Test results from paper PMC10786891, “Massively parallel profiling of RNA-targeting CRISPR-Cas13d”.

T1: EsCas13d, nuclease-dead (Eubacterium siraeum, UniProt B0MS50, R295A;H300A;R849A;H854A)
T1 sequence: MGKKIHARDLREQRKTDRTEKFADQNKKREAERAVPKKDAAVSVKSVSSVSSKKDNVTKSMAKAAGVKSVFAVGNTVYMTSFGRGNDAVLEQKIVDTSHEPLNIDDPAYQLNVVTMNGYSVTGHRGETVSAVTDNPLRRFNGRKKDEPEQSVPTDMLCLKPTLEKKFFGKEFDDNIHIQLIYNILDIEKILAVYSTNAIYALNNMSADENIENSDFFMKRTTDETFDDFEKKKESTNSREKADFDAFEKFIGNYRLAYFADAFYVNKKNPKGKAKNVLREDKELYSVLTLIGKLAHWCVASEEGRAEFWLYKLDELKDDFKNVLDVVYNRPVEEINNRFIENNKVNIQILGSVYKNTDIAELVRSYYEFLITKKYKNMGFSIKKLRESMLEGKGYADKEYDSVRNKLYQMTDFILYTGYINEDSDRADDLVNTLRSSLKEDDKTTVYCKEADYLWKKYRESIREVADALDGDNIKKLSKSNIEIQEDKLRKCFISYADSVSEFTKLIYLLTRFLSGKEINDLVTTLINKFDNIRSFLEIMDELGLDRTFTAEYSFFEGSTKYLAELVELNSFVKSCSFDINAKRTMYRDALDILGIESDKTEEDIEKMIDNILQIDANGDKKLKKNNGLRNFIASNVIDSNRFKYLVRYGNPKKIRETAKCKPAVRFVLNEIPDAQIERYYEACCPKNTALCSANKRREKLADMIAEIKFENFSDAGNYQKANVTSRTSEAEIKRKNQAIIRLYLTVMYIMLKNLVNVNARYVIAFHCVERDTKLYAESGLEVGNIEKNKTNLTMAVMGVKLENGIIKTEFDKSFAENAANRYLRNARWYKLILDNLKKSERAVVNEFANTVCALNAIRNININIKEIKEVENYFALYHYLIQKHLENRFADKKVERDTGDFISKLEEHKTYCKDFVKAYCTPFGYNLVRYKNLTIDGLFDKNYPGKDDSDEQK


Biological target: T1, EsCas13d, nuclease-dead
Assay: crRNA (strand 1, pre-loaded); Mg2+; 40 mM Tris-HCl pH 7.5, 150 mM NaCl, 6 mM MgCl2, 1 mM DTT, 0.1% Tween-20, 0.2 mg/ml BSA; 25 C; 10 min per concentration, then washed
Settings: tags: His6-TwinStrep-SUMO cleaved; N-terminal SNAP kept (SNAP-Surface 488); label: 3' end held by stalled T7 RNA polymerase

| Binder | Kd |
| --- | --- |
| target 2 MT 5'PFS GAA 3'PFS UUC (mixed) RNA 1: CACCCGUGCAAAAUUGCAGGGGUCUAAAACCUUCUCCAAAUUGUUUCAUCCU RNA 2: GGGAAUGGAUCCACAUCUACGAAUUCGAAAGGAUGAAACAAUUUGGAGAAGUUCAGAUCGGAAGAGCACACGU | ~70 nM |
| target 2 MT 5'PFS GUC 3'PFS AUA (mixed) RNA 1: CACCCGUGCAAAAUUGCAGGGGUCUAAAACCUUCUCCAAAUUGUUUCAUCCU RNA 2: GGGAAUGGAUCCACAUCUACGAAUUCGUCAGGAUGAAACAAUUUGGAGAAGAUAAGAUCGGAAGAGCACACGU | 12.6 ± 1.6 nM |
| target 2 MT 5'PFS GGC 3'PFS CCG (mixed) RNA 1: CACCCGUGCAAAAUUGCAGGGGUCUAAAACCUUCUCCAAAUUGUUUCAUCCU RNA 2: GGGAAUGGAUCCACAUCUACGAAUUCGGCAGGAUGAAACAAUUUGGAGAAGCCGAGAUCGGAAGAGCACACGU | 17.1 ± 3 nM |
| target 2 MT 5'PFS CUA 3'PFS CUU (mixed) RNA 1: CACCCGUGCAAAAUUGCAGGGGUCUAAAACCUUCUCCAAAUUGUUUCAUCCU RNA 2: GGGAAUGGAUCCACAUCUACGAAUUCCUAAGGAUGAAACAAUUUGGAGAAGCUUAGAUCGGAAGAGCACACGU | 4 ± 0.8 nM |
| target 2 MT 5'PFS GUC 3'PFS AUC (mixed) RNA 1: CACCCGUGCAAAAUUGCAGGGGUCUAAAACCUUCUCCAAAUUGUUUCAUCCU RNA 2: GGGAAUGGAUCCACAUCUACGAAUUCGUCAGGAUGAAACAAUUUGGAGAAGAUCAGAUCGGAAGAGCACACGU | 13.5 ± 1.2 nM |
| target 2 MT 5'PFS CGG 3'PFS ACG (mixed) RNA 1: CACCCGUGCAAAAUUGCAGGGGUCUAAAACCUUCUCCAAAUUGUUUCAUCCU RNA 2: GGGAAUGGAUCCACAUCUACGAAUUCCGGAGGAUGAAACAAUUUGGAGAAGACGAGAUCGGAAGAGCACACGU | 4.05 ± 0.24 nM |
| target 2 MT 5'PFS UAG 3'PFS CGA (mixed) RNA 1: CACCCGUGCAAAAUUGCAGGGGUCUAAAACCUUCUCCAAAUUGUUUCAUCCU RNA 2: GGGAAUGGAUCCACAUCUACGAAUUCUAGAGGAUGAAACAAUUUGGAGAAGCGAAGAUCGGAAGAGCACACGU | 2.55 ± 0.33 nM |
| target 2 MT 5'PFS GUC 3'PFS AUU (mixed) RNA 1: CACCCGUGCAAAAUUGCAGGGGUCUAAAACCUUCUCCAAAUUGUUUCAUCCU RNA 2: GGGAAUGGAUCCACAUCUACGAAUUCGUCAGGAUGAAACAAUUUGGAGAAGAUUAGAUCGGAAGAGCACACGU | 11.2 ± 1.3 nM |
| target 2 MT 5'PFS GUC 3'PFS AUG (mixed) RNA 1: CACCCGUGCAAAAUUGCAGGGGUCUAAAACCUUCUCCAAAUUGUUUCAUCCU RNA 2: GGGAAUGGAUCCACAUCUACGAAUUCGUCAGGAUGAAACAAUUUGGAGAAGAUGAGAUCGGAAGAGCACACGU | 15.6 ± 1.9 nM |
| target 2 MT 5'PFS CAU 3'PFS UCU (mixed) RNA 1: CACCCGUGCAAAAUUGCAGGGGUCUAAAACCUUCUCCAAAUUGUUUCAUCCU RNA 2: GGGAAUGGAUCCACAUCUACGAAUUCCAUAGGAUGAAACAAUUUGGAGAAGUCUAGAUCGGAAGAGCACACGU | 4.7 ± 0.7 nM |
| target 2 MT 5'PFS CGG 3'PFS ACU (mixed) RNA 1: CACCCGUGCAAAAUUGCAGGGGUCUAAAACCUUCUCCAAAUUGUUUCAUCCU RNA 2: GGGAAUGGAUCCACAUCUACGAAUUCCGGAGGAUGAAACAAUUUGGAGAAGACUAGAUCGGAAGAGCACACGU | 6.8 ± 1.1 nM |
| target 2 MT 5'PFS CGG 3'PFS ACA (mixed) RNA 1: CACCCGUGCAAAAUUGCAGGGGUCUAAAACCUUCUCCAAAUUGUUUCAUCCU RNA 2: GGGAAUGGAUCCACAUCUACGAAUUCCGGAGGAUGAAACAAUUUGGAGAAGACAAGAUCGGAAGAGCACACGU | 5 ± 0.5 nM |
| target 2 MT 5'PFS AGG 3'PFS CCU (mixed) RNA 1: CACCCGUGCAAAAUUGCAGGGGUCUAAAACCUUCUCCAAAUUGUUUCAUCCU RNA 2: GGGAAUGGAUCCACAUCUACGAAUUCAGGAGGAUGAAACAAUUUGGAGAAGCCUAGAUCGGAAGAGCACACGU | 40 ± 15 nM |
| target 2 MT 5'PFS CUG 3'PFS UUA (mixed) RNA 1: CACCCGUGCAAAAUUGCAGGGGUCUAAAACCUUCUCCAAAUUGUUUCAUCCU RNA 2: GGGAAUGGAUCCACAUCUACGAAUUCCUGAGGAUGAAACAAUUUGGAGAAGUUAAGAUCGGAAGAGCACACGU | 4.7 ± 0.4 nM |
| target 2 MT 5'PFS GGU 3'PFS UUC (mixed) RNA 1: CACCCGUGCAAAAUUGCAGGGGUCUAAAACCUUCUCCAAAUUGUUUCAUCCU RNA 2: GGGAAUGGAUCCACAUCUACGAAUUCGGUAGGAUGAAACAAUUUGGAGAAGUUCAGAUCGGAAGAGCACACGU | 73 ± 28 nM |
| target 2 MT 5'PFS CAC 3'PFS UGU (mixed) RNA 1: CACCCGUGCAAAAUUGCAGGGGUCUAAAACCUUCUCCAAAUUGUUUCAUCCU RNA 2: GGGAAUGGAUCCACAUCUACGAAUUCCACAGGAUGAAACAAUUUGGAGAAGUGUAGAUCGGAAGAGCACACGU | 2.27 ± 0.29 nM |
| target 2 MT 5'PFS UUU 3'PFS AGA (mixed) RNA 1: CACCCGUGCAAAAUUGCAGGGGUCUAAAACCUUCUCCAAAUUGUUUCAUCCU RNA 2: GGGAAUGGAUCCACAUCUACGAAUUCUUUAGGAUGAAACAAUUUGGAGAAGAGAAGAUCGGAAGAGCACACGU | 7.3 ± 0.8 nM |
| target 2 MT 5'PFS CUG 3'PFS UUC (mixed) RNA 1: CACCCGUGCAAAAUUGCAGGGGUCUAAAACCUUCUCCAAAUUGUUUCAUCCU RNA 2: GGGAAUGGAUCCACAUCUACGAAUUCCUGAGGAUGAAACAAUUUGGAGAAGUUCAGAUCGGAAGAGCACACGU | 7.3 ± 1.4 nM |
| target 2 MT 5'PFS UAG 3'PFS CGG (mixed) RNA 1: CACCCGUGCAAAAUUGCAGGGGUCUAAAACCUUCUCCAAAUUGUUUCAUCCU RNA 2: GGGAAUGGAUCCACAUCUACGAAUUCUAGAGGAUGAAACAAUUUGGAGAAGCGGAGAUCGGAAGAGCACACGU | 2.89 ± 0.35 nM |
| target 2 MT 5'PFS CGG 3'PFS ACC (mixed) RNA 1: CACCCGUGCAAAAUUGCAGGGGUCUAAAACCUUCUCCAAAUUGUUUCAUCCU RNA 2: GGGAAUGGAUCCACAUCUACGAAUUCCGGAGGAUGAAACAAUUUGGAGAAGACCAGAUCGGAAGAGCACACGU | 12 ± 1.9 nM |
| target 2 MT 5'PFS CUG 3'PFS UUG (mixed) RNA 1: CACCCGUGCAAAAUUGCAGGGGUCUAAAACCUUCUCCAAAUUGUUUCAUCCU RNA 2: GGGAAUGGAUCCACAUCUACGAAUUCCUGAGGAUGAAACAAUUUGGAGAAGUUGAGAUCGGAAGAGCACACGU | 5.8 ± 0.9 nM |
| target 2 MT 5'PFS GGC 3'PFS CCA (mixed) RNA 1: CACCCGUGCAAAAUUGCAGGGGUCUAAAACCUUCUCCAAAUUGUUUCAUCCU RNA 2: GGGAAUGGAUCCACAUCUACGAAUUCGGCAGGAUGAAACAAUUUGGAGAAGCCAAGAUCGGAAGAGCACACGU | 16.9 ± 2.7 nM |
| target 2 MT 5'PFS CUG 3'PFS UUU (mixed) RNA 1: CACCCGUGCAAAAUUGCAGGGGUCUAAAACCUUCUCCAAAUUGUUUCAUCCU RNA 2: GGGAAUGGAUCCACAUCUACGAAUUCCUGAGGAUGAAACAAUUUGGAGAAGUUUAGAUCGGAAGAGCACACGU | 5.5 ± 0.5 nM |
| target 2 MT 5'PFS UUU 3'PFS AGG (mixed) RNA 1: CACCCGUGCAAAAUUGCAGGGGUCUAAAACCUUCUCCAAAUUGUUUCAUCCU RNA 2: GGGAAUGGAUCCACAUCUACGAAUUCUUUAGGAUGAAACAAUUUGGAGAAGAGGAGAUCGGAAGAGCACACGU | 4.9 ± 0.6 nM |
| target 2 MT 5'PFS GGU 3'PFS UUU (mixed) RNA 1: CACCCGUGCAAAAUUGCAGGGGUCUAAAACCUUCUCCAAAUUGUUUCAUCCU RNA 2: GGGAAUGGAUCCACAUCUACGAAUUCGGUAGGAUGAAACAAUUUGGAGAAGUUUAGAUCGGAAGAGCACACGU | 68 ± 20 nM |
| target 1 G5A,C7A (mixed) RNA 1: CACCCGUGCAAAAAUGCAGGGGUCUAAAACUGAGCGGAUAACCUCUCUAUGG RNA 2: GGGAAUGGAUCCACAUCUACGAAUUCGUACCAUAGAGAGGUUAUACACUCACCGAGAUCGGAAGAGCACACGU | 10.3 ± 0.6 nM |
| target 1 A9C,G15A (mixed) RNA 1: CACCCGUGCAAAAAUGCAGGGGUCUAAAACUGAGCGGAUAACCUCUCUAUGG RNA 2: GGGAAUGGAUCCACAUCUACGAAUUCGUACCAUAGAAAGGUUCUCCGCUCACCGAGAUCGGAAGAGCACACGU | 35 ± 5 nM |
| target 1 U11A,A16G (mixed) RNA 1: CACCCGUGCAAAAAUGCAGGGGUCUAAAACUGAGCGGAUAACCUCUCUAUGG RNA 2: GGGAAUGGAUCCACAUCUACGAAUUCGUACCAUAGGGAGGAUAUCCGCUCACCGAGAUCGGAAGAGCACACGU | 77 ± 15 nM |
